Consider one protein from paper PMC11461620 (Nature Communications, 2024).

This series deals with the molecule itself. The experiment in a line: crystal structure.

B1: β-barrel domain of E. coli BamA (residues 426–810) (domain or fragment)
chain: not shown
modifications: biotin (EZ-Link NHS-PEG4-Biotin, chemical) in the SPR experiment only
Turning to B1, the binding result is listed as “binds”.
